US20040054158A1

Legend:
[1] = biological target: B7 molecules on WEHI 231 cells (B7-1 and B7-2); assay: flow cytometry, titered staining of WEHI 231 cells
[2] = biological target: B7 molecules on WEHI 231 cells (B7-1 and B7-2); assay: flow cytometry, titered staining of WEHI 231 cells; estimate from detectable concentrations

mCTLA4-mIgG2am, sequence (P09793 36-161): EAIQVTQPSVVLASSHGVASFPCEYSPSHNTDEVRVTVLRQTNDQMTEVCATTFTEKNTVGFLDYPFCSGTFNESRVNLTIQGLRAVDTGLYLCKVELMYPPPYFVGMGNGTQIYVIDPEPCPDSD

## mCTLA4-mIgG2am (from UniProt P09793 36-161) (Fc fusion)
[1]
  concentration at which staining was clearly detectable: 8 ng/mL
[2]
  fold greater binding affinity than mICOS-mIgG2am binding to GL50 on WEHI cells: > 100 fold
